For test [1], the target named is HLA-DQ molecule DQB1*0602 (human). Description: inhibition of radiolabeled peptide binding to purified HLA-DQ.
For test [2], the target named is HLA-DQ molecule DQB1*0202 (human). Described as above.
For test [3], the target named is T1, HLA-DQ molecule DQB1*0402 (human, UniProt P01909 24-216; P01920 33-230, limits assumed).
T1 MHC II alpha: not shown
T1 MHC II beta: not shown
Described as above.

In test [4] the target is HLA-DQ molecule DQB1*0301 (human, UniProt P01909 24-216; P01920 33-230, limits assumed). The description is as above.
For test [5], the target named is T2, HLA-DQ molecule DQB1*0302 (human, UniProt P01909 24-216; P01920 33-230, limits assumed).
T2 MHC II alpha: not shown
T2 MHC II beta: not shown
The description is as above.

The target of test [6] is HLA-DQ molecule DQB1*0503 (human). The description is as above.
The target of the next test is T3, HLA-DP DPB1*0401 (human).
T3 chain 1: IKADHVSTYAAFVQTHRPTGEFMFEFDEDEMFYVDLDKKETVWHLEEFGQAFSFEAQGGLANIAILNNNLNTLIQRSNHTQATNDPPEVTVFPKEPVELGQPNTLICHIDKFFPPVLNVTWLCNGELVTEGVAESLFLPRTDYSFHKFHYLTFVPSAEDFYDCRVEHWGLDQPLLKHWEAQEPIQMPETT
T3 chain 2: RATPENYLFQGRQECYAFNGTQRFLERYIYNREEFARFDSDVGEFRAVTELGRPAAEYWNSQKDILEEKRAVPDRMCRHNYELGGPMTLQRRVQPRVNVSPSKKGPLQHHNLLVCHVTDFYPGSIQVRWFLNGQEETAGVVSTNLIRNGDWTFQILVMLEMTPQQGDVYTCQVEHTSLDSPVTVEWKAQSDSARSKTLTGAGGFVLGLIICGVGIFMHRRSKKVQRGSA
Description: inhibition of radiolabeled peptide binding to purified HLA-DP.

By IC50 is commonly meant the concentration that inhibits the measured activity by half. Lower therefore signals greater potency. On to NLNIKLNMPLYIAGN [Cha o 1 (96-110) peptide NLNIKLNMPLYIAGN], for which the IC50 in test [1] came to 2.86 µM; in test [2], 39.7 µM; in test [3] it was 30.4 µM; in test [4] it was 31.9 µM; in test [5], 50 µM; in test [6] it was 10.7 µM.

The molecule EGTVDFIFGEARSLY [Sal k 1 1 peptide 191-205, EGTVDFIFGEARSLY (Peptide ID 3324.1590)] returned an IC50 with HLA-DP DPB1*0401 of 2.04 µM.

(Values after patent US20150004189A1 (published 2015).)
